Assay in all cases: EMSA; EMSA: 10 mM Tris-HCl pH 7.5, 150 mM NaCl, 1 mM EDTA, 15 ug/ml BSA, 8% glycerol, 15 min at 20 C, 0.1 nM DNA, TBE gel; NMR PRE: 10 mM phosphate pH 6, 100 mM NaCl, 10% D2O
Common to all, as to conditions: protein: recombinant; label: 5'-32P on one strand; blunt
On the technique in general: In EMSA bound probe runs differently from free probe, usually more slowly.

One series addresses T1, MC1 R25A (Methanosarcina thermophila CHTI55, UniProt P12770 1-93, R25A).
T1 sequence: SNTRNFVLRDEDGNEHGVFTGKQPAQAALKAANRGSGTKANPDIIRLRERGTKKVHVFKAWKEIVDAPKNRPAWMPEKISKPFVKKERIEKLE

In the next series the target is T2, MC1 W74F (Methanosarcina thermophila CHTI55, UniProt P12770 1-93, W74F).
T2 sequence: T1 sequence with A25R, W74F

A further series addresses T3, MC1 I89A (Methanosarcina thermophila CHTI55, UniProt P12770 1-93, I89A).
T3 sequence: T1 sequence with A25R, I89A

The target in the next series is T4, MC1 R71A (Methanosarcina thermophila CHTI55, UniProt P12770 1-93, R71A).
T4 sequence: T1 sequence with A25R, R71A

The target of another series is T5, MC1 P72A (Methanosarcina thermophila CHTI55, UniProt P12770 1-93, P72A).
T5 sequence: T1 sequence with A25R, P72A

Another series has as its target T6, MC1 R25Q (Methanosarcina thermophila CHTI55, UniProt P12770 1-93, R25Q).
T6 sequence: T1 sequence with A25Q

The target in another series is T7, MC1 Q23E (Methanosarcina thermophila CHTI55, UniProt P12770 1-93, Q23E).
T7 sequence: T1 sequence with Q23E, A25R

The results in this text go back to paper PMC3928310, “Model of a DNA-Protein Complex of the Architectural Monomeric Protein MC1 from Euryarchaea”.

Residue numbers refer to the chain shown, from its start.

B1: 26 bp EMSA duplex (dsDNA)
DNA 1: GCCTCAAAAACACACACCCCCGACAG
DNA 2: CTGTCGGGGGTGTGTGTTTTTGAGGC
Broadly, the Kd is the concentration at which binding is half-saturated. As to B1, the Kd in the series with MC1 R25A turned out to be 161 ± 14 nM; with MC1 W74F it was 8.4 ± 1 nM; with MC1 I89A, 15.4 ± 2 nM; with MC1 R71A, 3.6 ± 0.2 nM; with MC1 P72A it was 4.2 ± 0.5 nM; with MC1 R25Q, 552 ± 34 nM. Besides, the Kd with MC1 Q23E amounted to 9.05 ± 2 nM.
